Laboratory results reported in publication doi:10.1101/2021.12.24.474084 (bioRxiv, 2021).

These binders were tested against SARS-CoV-2 wild-type receptor binding domain (RBD) (ACROBiosystems, Cat No. SPD-C52H3) (SARS-CoV-2 wild-type (MN908947), UniProt P0DTC2) (assay: BLI).

| Binder | binding result |
| --- | --- |
| XGv282 monoclonal antibody (antibody, V domains shown) VH: VQLVQSGAEVKKPGSSVKVSCKASGDTFSSYTFSWVRQAPGQGLEWMGRSIPIVGKAIYAQEFQGRVTISADRSTTTVYMELSSLRSDDTAVYYCARDQSGFDFFYYDHWGQGTLVAV VL: QSVLTQPPSASGTPGQRVTISCSGSGSNIGSNTINWYQQLPGTAPKVLIYRNNERPSGVPDRFSGSKSGTSASLTISGLQSEDEAYYHCAAWDDSLNGPVFGGGTKLTVL | binds |
| XGv265 monoclonal antibody (antibody, V domains shown) VH: QITLKESGPTLVKPTQTLTLTCNFSGFSLNTYGVGVGWIRQPPGKALEWLALIYWDGDERYGPFFKNKVTIAKDTSKNQVVLTMTNMDPVDTATYYCARHLIPTIFDYWGQGTLVTVSS VL: ALTQPASVSGSPGQSITISCTGTSSDVGGSNYVSWYQHHPDRAPKLLIYEVTNRPSGVSNRFSGSKSANTASLTISGLQAEDEADYYCSSYTTTSTHILFGGGTKLTV | binds |
| XGv289 monoclonal antibody (antibody, V domains shown) VH: QVQLVQSGAEVKKPGASLKVSCRASGYTFTSHFIHWVRQAPGQGLEWMGIINPSGGASYAQNFRDRVTMTTDPSTSTVYMELGSLRSEDTAVYYCARAEGSSWLGWFDPWGQGTLVTVSS VL: SVLTQPPSASGTPGQRVTIPCSGSSSNIGNNYVYWYQQLPGTAPKLLVYGNNQRPSGVPDRFSVSKSGTSASLAISGLRSEDEADYYCAAWDDGLSGSGWVFGGGTKLTVL | binds |
| XGv347 monoclonal antibody (antibody, V domains shown) VH: QMQLVQSGPEVKKPGTSVKVSCKASGFTFTDVSSLQWVRQARGQRLEWIGWTVVGTGNTNYAPRFQERVTITTDKSTSTAYMELSSLRSEDTAVYYCAAPFCSETSCSDGFDLWGQGTKVTVS VL: EIVLTQSPGTLSLSPGDRATLSCRASQSVRISYLAWYQQKPGQAPRLLISGSSSRATGIPDRFSASGSGTDFTLTISRLEPEDFAVYYCQQYANSPWTFGQGTKVEV | binds |
